“Also recorded” adds a separate entry of the source. Each block holds one molecule with its values, some of them ahead of it.
Experiments:
[1] = target: Ddx17 (bait of the Ddx complex, Table 3) (UniProt Q92841); test: IP tandem mass spectrometry of the Ddx17 complex, mock-treated
[2] = target: Ddx17 (bait of the Ddx complex, Table 3) (UniProt Q92841); test: IP tandem mass spectrometry of the Ddx17 complex, Alu RNA-treated
caspase-1 = test: Alu RNA induced caspase-1 activation in THP1 cells after siRNA knockdown; assay type: cell-based, human; details: siRNA knockdown (FIGS. 11A, 11B)
Source text: FIGS. 11A and 11B. Ddx17 involved in Alu RNA (SEQ ID NO: 86) induced inflammasome independent of its microprocessor function. DDX17 is a component of microprocessor complexes with DDX5 and Drosha. To test whether the microprocessor function of DDX17 is required for Alu RNA (SEQ ID NO: 86) induced inflammasome, we measured caspase-1 activation in THP cells with DDX5 or Drosha knockdown (siRNA for DDX5: GGAAAUUACAGUUAGAGGU; SEQ ID NO: 89); siRNA for Drosha: GACAAGUUGAUAGGAUAUA; SEQ ID NO: 90). FIG. 11A. siRNA mediated Ddx17 knockdown, but not Ddx5 in THP1 cells, blocked Alu RNA (SEQ ID NO: 86) induced caspase-1 activation. […] The caspase-1 (p20) bands were indicated with black arrows.
We next examined whether DDX5 or DDX17 was the sensor for Alu RNA (SEQ ID NO: 86) induced NLRC4 inflammasome activation. Due to the high degree of similarity in the sequences of DDX5 and DDX17, we designed 3 siRNAs targeting DDX5 alone, DDX17 alone, or both DDX5 and DDX17, and confirmed their target efficiency in THP1 cells (FIG. 11A). […] Therefore, we tested whether Drosha is also involved in SINE RNA-DDX17-NLRC4 axis. […] These observations implicate that DDX17 mediated SINE RNA induced NLRC4 inflammasome is independent of microprocessor function.

[3] = tested on: NLRC4 phosphorylation (site S533); test: SINE RNA induced NLRC4 phosphorylation (S533) in BMDM, Western blot; assay type: cell-based, mouse; details: SINE RNAs each at 100 pmol, polyI:C 10 μg/ml (FIG. 1)
Method: FIG. 1. SINE RNA induced NLRC4 phosphorylation (site S533) in mice macrophage (BMDM). Mouse bone marrow derived macrophage (BMDM) were treated with SINE RNAs (Alu (SEQ ID NO: 86), B1 (SEQ ID NO: 87), and B2 (SEQ ID NO: 88), each at 100 pmol), and polyI:C (10 μg/ml). Phosphorylated Nlrc4 (p-Nlrc4) and total Nlrc4 (t-Nlrc4) were detected by Western blot. Actin is provided as a loading control. The p-NLRC4 bands were indicated by black arrow.
Previous studies have shown that NLRC4 inflammasome activation in response to Salmonella exposure requires two steps for its activation, phosphorylation on Ser533 residue of NLRC4 and NAIP mediated oligomerization of NLRC4. […] Moreover, treatment with SINE RNAs induced caspase-1 p20 cleavage, indicative of inflammasome activation (FIG. 2). For the subsequent experiments in this study, we used Alu RNA (SEQ ID NO: 86) as the stimulus to activate the NLRC4 inflammasome. To date, two kinases are reported to phosphorylate NLRC4 at S533: protein kinase C delta (PKCδ) and leucine rich repeat-containing kinase-2 (LRRK2). To explore the roles of these kinases in Alu RNA (SEQ ID NO: 86) induced NLRC4 phosphorylation, we pretreated BMDMs with pharmacological inhibitors of LRRK2 (GSK2578215A, GSK) and PKCδ (Rottlerin, Rot) respectively.

NLRC4 inflammasome = test: Flagellin-induced caspase-1 activation in wild type BMDM pre-treated with NRTIs, immunoblot; assay type: cell-based, mouse; details: pre-treated 1 hour, flagellin 3 μg/ml (FIG. 31)
Method: FIG. 27. NRTI block Flagellin induced NLRC4 inflammasome in BMDM. Wild type BMDM cells were pre-treated with exemplary NRTIs (D4T, 3TC) at 100 μM for 1 hour, and then stimulated with flagellin transfection (3 μg/ml). Supernatant and cell lysate were collected for Caspase-1 detection. […] The caspase-1 (p20) bands are indicated with black arrow.
FIG. 28. NRTI (3TC) blocks flagellin-induced NLRC4 inflammasome in a dose dependent manner. Wild type BMDM cell were pre-treated with indicated dose of NRTI (3TC) for 1 hour, and then stimulated with Flagellin transfection (3 μg/ml). Supernatants were collected for Caspase-1 detection. […] The caspase-1 (p20) bands are indicated with black arrow.
FIG. 31. Modified NRTIs (K8, K9) block flagellin-induced NLRC4 inflammasome in BMDM. Wild type BMDM cell were pre-treated with regular NRTI (D4T, 3TC), the modified NRTIs 3-Methyl-3TC (K9) or 2-Ethyl-AZT (K8), or NLRP3 inhibitors (MCC950, CY-09) for 1 hour, and then stimulated with flagellin transfection (3 μg/ml). Supernatants were collected for secreted caspase-1 detection. […] The caspase-1 (p20) bands are indicated with black arrow.
Nucleoside reverse transcriptase inhibitors (NRTIs) are HIV therapeutics that inhibit retrovirus replication. We have previously shown that NRTIs inhibit P2X7-mediated NLRP3 inflammasome activation by an endogenous retroelement Alu RNA (SEQ ID NO: 86). Activation of NLRP3 inflammasome by Alu RNA (SEQ ID NO: 86) causes the death of retinal pigment epithelium (RPE) in geographic atrophy, a severe form of AMD. […] Currently, multiple NLRP3 inflammasome inhibitors such as MCC950, CY09 are available however, there are no inhibitors of NLRC4. So, a need exists to develop inhibitors of NLRC4 inflammasome to study NLRC4 driven diseases. Here, we show for the first time that NRTIs block flagellin induced NLRC4 inflammasome. We pretreated flagellin transfected BMDMs with DT4 and 3TC to examine caspase-1 activation.
NLRC4 oligomerization is another hallmark of inflammasome activation where high-molecular mass NLRC4 protein complexes are assembled. […]

ASC specks = test: SINE RNA induced ASC specks in BMDM, immunofluorescence; assay type: cell-based, mouse; details: BMDMs, transfection vs Mock (FIG. 3A)
Method: FIGS. 3A and 3B. SINE RNA-induced ASC oligomerization is dependent on NLRC4 (BMDM). FIG. 3A. Immunofluorescence images of endogenous ASC specks and NLRC4 puncta in BMDMs after transfected with Alu (SEQ ID NO: 86) or B2 (SEQ ID NO: 88) RNA or transfection reagents only (Mock). […] Moreover, NLRC4 proteins assembled as puncta, and co-resided with ASC specks. FIG. 3B. ASC oligomerizations were evaluated in wild-type and Nlrc4^−/− BMDMs through cross-linking and western blot. […] The bands of oligomeric ASC protein were indicated by black arrow.
The activated NLRC4 inflammasome undergoes oligomerization by assembling into high-molecular mass multiprotein complexes. We first investigated in situ assembling of NLRC4 and apoptosis speck (ASC) like protein complexes in response to SINE RNA treatment of BMDMs. Immunofluorescence studies show increased NLRC4 and ASC specks in SINE RNA-treated BMDMs compared to mock-treated cells (FIG. 3A). To assess NLRC4 inflammasome assembly, WT and NLRC4 KO BMDM cells were treated with Alu RNA (SEQ ID NO: 86). Disuccinimidyl suberate (DSS) cross-linked lysates were resolved using denaturing SDS-PAGE to detect ASC oligomers and cell lysates were resolved using native polyacrylamide gel electrophoresis (NATIVE-PAGE) to detect NLRC4 oligomerization. […] NLRC4/ASC oligomerization is essential for the cleavage of pro-caspase-1 into its active form p20 and IL-1β release.

Chain of Ddx17 (bait of the Ddx complex, Table 3) (Q92841 whole entry, one chain of several): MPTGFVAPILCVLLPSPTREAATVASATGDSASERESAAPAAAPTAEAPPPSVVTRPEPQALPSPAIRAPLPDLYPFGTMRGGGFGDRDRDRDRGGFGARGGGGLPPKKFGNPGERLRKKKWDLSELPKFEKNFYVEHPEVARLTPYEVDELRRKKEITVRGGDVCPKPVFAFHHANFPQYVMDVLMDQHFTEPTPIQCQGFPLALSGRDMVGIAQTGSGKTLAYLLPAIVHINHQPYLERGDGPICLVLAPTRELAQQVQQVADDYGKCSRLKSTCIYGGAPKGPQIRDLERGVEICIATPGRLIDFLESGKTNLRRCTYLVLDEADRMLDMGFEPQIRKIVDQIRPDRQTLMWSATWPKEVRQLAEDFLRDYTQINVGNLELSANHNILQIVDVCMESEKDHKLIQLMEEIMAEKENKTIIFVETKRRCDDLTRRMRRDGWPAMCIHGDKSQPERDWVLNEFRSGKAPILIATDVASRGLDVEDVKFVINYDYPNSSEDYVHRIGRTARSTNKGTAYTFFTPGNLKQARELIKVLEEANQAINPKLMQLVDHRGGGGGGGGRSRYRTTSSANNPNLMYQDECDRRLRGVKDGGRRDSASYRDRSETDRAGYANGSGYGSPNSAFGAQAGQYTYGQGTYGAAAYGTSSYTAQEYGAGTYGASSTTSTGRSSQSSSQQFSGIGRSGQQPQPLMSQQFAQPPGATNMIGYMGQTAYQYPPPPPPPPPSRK

- Coverage (%) [1]: 0%
- Peptides [1]: 0 peptides
- Coverage (%) [2]: 3.7%
- Peptides [2]: 3 peptides
Molecule: Nlrp3 (Table 3) (from UniProt Q96P20 1-1036) (receptor)

Molecule: siDrosha: siRNA for Drosha: GACAAGUUGAUAGGAUAUA; SEQ ID NO: 90 (listed as RNA, chemistry not given here)
- caspase-1 cleavage in Alu RNA treated THP1 cells (caspase-1): did not

- Peptides [1]: 10 peptides
Molecule: Ddx5 (Table 3) (from UniProt P17844 1-614)

- Coverage (%) [1]: 0%
- Peptides [1]: 0 peptides
- Coverage (%) [2]: 2.9%
- Peptides [2]: 2 peptides
Molecule: Nlrp8 (Table 3) (from UniProt Q86W28 1-1048) (receptor)

Molecule: poly(I:C)
- NLRC4 phosphorylation on S533 in BMDMs [3]: did not induce

Molecule: DDX5 siRNA: siRNA for DDX5: GGAAAUUACAGUUAGAGGU; SEQ ID NO: 89 (chemistry not fully specified)
- caspase-1 cleavage in Alu RNA treated THP1 cells (caspase-1): did not do so

- flagellin induced caspase-1 activation, modified NRTIs (NLRC4 inflammasome): blocked; also recorded: inhibited
Molecule: 3-Methyl-3TC [K9]

- Coverage (%) [1]: 0%
- Peptides [1]: 0 peptides
- Coverage (%) [2]: 6.6%
- Peptides [2]: 2 peptides
Molecule: Nlrp1 (Table 3) (from UniProt Q9C000 1-1473) (receptor)

- Coverage (%) [1]: 17%
- Coverage (%) [2]: 25%
- Peptides [2]: 15 peptides
Molecule: Ddx5 (Table 3) (from UniProt P17844 1-614) (enzyme)

- flagellin induced caspase-1 activation, modified NRTIs (NLRC4 inflammasome): blocked; also recorded: inhibited
Molecule: 2-Ethyl-AZT [K8]

B1: B2: mouse SINE B2 RNA, SEQ ID NO: 88 (nucleic acid)
chain: GGGCUGGAGAGAUGGCUCAGUGGUUAAGAGCACCUGACUGCUCUUCCAGAGGUCCUGAGUUCAAUUCCCAGCAACCACAUGGUGGCUCACAACCAUCUGUAAUGAGAUCUGAUGCCCUCUUCUGGUGUGUCUGAAGACAGCUACAGUGUACUUACAUAUAAUAAAUAAAUAAAUAAAUAAAUCUUAAAAAAAAAAAAAAGAAAGAAAAA
modifications: Artificially synthesized B2 RNA
- NLRC4 phosphorylation on S533 in BMDMs [3]: induced
- formation of ASC specks (ASC specks): induced the formation of ASC specks

Source: US20220280543A1, “DDX17 AND NLRC4 TARGETING FOR INFLAMMATORY DISEASES” (University of Virginia Patent Foundation, priority 2019, published 2022)
